Source: patent US20240270857A1 (CHIA TAI TIANQING PHARMACEUTICAL GROUP, published 2024)
Like-named read-outs stand apart in the source and are kept apart here.

T1: IL-36R naturally expressed on OVCAR8 cells and on normal human epidermal keratinocytes (NHK cells) (human, UniProt Q9HB29 20-575)
T1 sequence (looked up): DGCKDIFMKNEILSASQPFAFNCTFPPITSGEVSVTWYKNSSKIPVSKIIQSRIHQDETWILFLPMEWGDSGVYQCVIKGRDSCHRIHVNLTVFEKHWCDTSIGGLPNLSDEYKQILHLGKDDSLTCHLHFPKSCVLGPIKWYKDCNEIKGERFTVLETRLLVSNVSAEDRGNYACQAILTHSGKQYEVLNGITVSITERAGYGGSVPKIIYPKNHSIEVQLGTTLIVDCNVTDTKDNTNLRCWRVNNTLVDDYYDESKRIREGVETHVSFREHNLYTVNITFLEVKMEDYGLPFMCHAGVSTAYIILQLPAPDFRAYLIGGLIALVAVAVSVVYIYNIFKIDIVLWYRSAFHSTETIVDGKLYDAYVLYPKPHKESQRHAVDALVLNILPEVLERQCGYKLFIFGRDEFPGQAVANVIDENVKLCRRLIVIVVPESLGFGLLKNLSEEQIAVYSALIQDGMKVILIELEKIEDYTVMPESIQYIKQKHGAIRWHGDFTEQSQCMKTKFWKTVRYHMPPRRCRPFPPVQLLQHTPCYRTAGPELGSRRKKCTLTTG

T2: cynomolgus IL-36R overexpressed on 293T-CynoIL36R-NFκB cells (cynomolgus monkey)
T2 chain: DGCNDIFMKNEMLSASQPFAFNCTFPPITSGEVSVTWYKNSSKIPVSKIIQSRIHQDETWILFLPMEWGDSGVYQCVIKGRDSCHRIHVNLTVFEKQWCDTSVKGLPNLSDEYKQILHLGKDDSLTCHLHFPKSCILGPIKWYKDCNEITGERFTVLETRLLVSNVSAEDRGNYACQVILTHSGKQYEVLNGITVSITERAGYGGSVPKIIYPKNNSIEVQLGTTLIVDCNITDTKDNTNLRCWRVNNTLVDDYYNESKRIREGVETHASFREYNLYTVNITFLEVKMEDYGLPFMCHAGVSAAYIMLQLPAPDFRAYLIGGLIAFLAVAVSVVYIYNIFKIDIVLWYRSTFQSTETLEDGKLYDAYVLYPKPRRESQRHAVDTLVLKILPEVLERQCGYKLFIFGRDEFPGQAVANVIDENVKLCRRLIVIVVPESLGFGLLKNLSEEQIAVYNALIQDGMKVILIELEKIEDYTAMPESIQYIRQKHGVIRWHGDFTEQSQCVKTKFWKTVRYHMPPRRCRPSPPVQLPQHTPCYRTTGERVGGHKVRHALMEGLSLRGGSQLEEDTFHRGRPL

T3: Human IL-1Rrp2/IL-1R6 protein, His Tag (ACROBiosystems, IL2-H52H6) (human, UniProt Q9HB29 20-335)
T3 construct: Bought protein; the soluble protein is likely only the extracellular part; also called hIL-36R; human IL36R antigen; not shown: His tag
T3 sequence: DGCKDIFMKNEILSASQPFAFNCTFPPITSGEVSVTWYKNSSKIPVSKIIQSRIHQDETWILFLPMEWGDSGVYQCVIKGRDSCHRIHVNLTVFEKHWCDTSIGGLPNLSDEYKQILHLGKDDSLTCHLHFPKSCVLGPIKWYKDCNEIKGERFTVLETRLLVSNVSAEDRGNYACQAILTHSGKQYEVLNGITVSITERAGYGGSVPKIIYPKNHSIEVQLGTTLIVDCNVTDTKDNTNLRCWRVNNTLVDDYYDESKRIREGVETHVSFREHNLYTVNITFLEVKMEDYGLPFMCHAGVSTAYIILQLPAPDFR


How the values were obtained:
[1] = target: T1, IL-36R naturally expressed on OVCAR8 …; assay: cell-based or functional assay
[2] = target: T1, IL-36R naturally expressed on OVCAR8 …; assay: cell-based or functional assay; remark: listed apart in the source
[3] = target: T2, cynomolgus IL-36R overexpressed on …; assay: cell-based or functional assay
[4] = target: T1, IL-36R naturally expressed on OVCAR8 …; assay: cell-based or functional assay; remark: listed apart in the source
[5] = target: T1, IL-36R naturally expressed on OVCAR8 …; assay: cell-based or functional assay; remark: listed apart in the source
[6] = target: T3, Human IL-1Rrp2/IL-1R6 protein, His Tag …; assay: BLI (ForteBio Octet), antibody on ProA sensor, 1:1 model
Experimental: The affinity of anti-IL-36R antibodies to CynoIL36R-ECD mFc and human IL-1Rrp2/IL-IR6 protein, His Tag (ACROBiosystems, IL2-H52H6) was measured by a ForteBio molecular interaction instrument. […] And then the biosensor was used to bind CynoIL36R-ECD mFc or human IL-1Rrp2/IL-1R6 protein, His Tag which was diluted by a gradient (the initial concentration was 200 nM, 2-fold gradient dilution), the response signals were detected in real time using a Fortebio molecular interaction instrument (SARTORIUS, octet red 96e), and association and dissociation curves were obtained. After the completion of dissociation in each cycle, the biosensor was regenerated for the next capture; the procedure was repeated until the affinity of the different anti-IL-36R antibodies for IL-36R was determined. The resulting data were analyzed by Fortebio Data Analysis 11.0 software in a 1:1 (Langmuir) binding model to determine kₐ (kₒₙ) and kd (koff) values, and the dissociation constant KD was calculated by KD=kd/kₐ. The detection method essentially followed the manufacturer's recommendations, and more information could be found at www.fortebio.com.

Binder | IC50; IL-8 production of OVCAR8 cells stimulated with hIL36γ, inhibition rate % [1] [nM] | IC50; IL-8 production of OVCAR8 cells stimulated with hIL36γ, inhibition rate % [2] [nM] | IC50; NFκB-luciferase reporter in 293T-CynoIL36R-NFκB cells stimulated with hIL36γ, inhibition rate % [3] [nM] | IC50; IL-8 production of OVCAR8 cells stimulated with hIL36α, inhibition rate % [4] [nM] | IC50; IL-8 production of OVCAR8 cells stimulated with hIL36β, inhibition rate % [5] [nM] | Kd [6] [nM] | koff [6] [s⁻¹] | kon [6] [M⁻¹ s⁻¹]
BI655130 (antibody, human IgG1, kappa, L234A L235A, also called Spesolimab) heavy: not shown light: QIVLTQSPGTLSLSPGERATMTCTASSSVSSSYFHWYQQKPGQAPRLWIYRTSRLASGVPDRFSGSGSGTDFTLTISRLEPEDAATYYCHQFHRSPLTFGAGTKLEIKRTVAAPSVFIFPPSDEQLKSGTASVVCLLNNFYPREAKVQWKVDNALQSGNSQESVTEQDSKDSTYSLSSTLTLSKADYEKHKVYACEVTHQGLSSPVTKSFNRGEC | 0.0405 | 0.0592 | 11.8 | 0.0799 | 0.0861 | 0.245 | 1.57e-05 | 64100
chimeric 84C4 antibody (antibody, human IgG4 S228P, kappa, Mouse variable regions on human IgG4 / kappa; also called xi84C4) heavy: not shown light: DILMTQSPSSLSASLGERVSLTCRASQDIGNALNWLQQAPDGTIKRLIYATSSLDPGVPKRFSGSRSGSDYSLTISSLASEDFVYYYCLQYASSPYTFGGGTKLEIKRTVAAPSVFIFPPSDEQLKSGTASVVCLLNNFYPREAKVQWKVDNALQSGNSQESVTEQDSKDSTYSLSSTLTLSKADYEKHKVYACEVTHQGLSSPVTKSFNRGEC | – | 0.0181 | – | – | 0.113 | – | – | –
chimeric 72C1 antibody (antibody, human IgG4 S228P, kappa, Mouse variable regions on human IgG4 / kappa; also called xi72C1) heavy: not shown light: EILLTQSPAIMSATLGEKVTMSCRASSNVRYMYWYQLKSGASPKLWIYLTSNLASGVPARFSGSGSGTSYSLTISSVEAEDAATYFCQQFTTSPYTFGGGTKLEIKRTVAAPSVFIFPPSDEQLKSGTASVVCLLNNFYPREAKVQWKVDNALQSGNSQESVTEQDSKDSTYSLSSTLTLSKADYEKHKVYACEVTHQGLSSPVTKSFNRGEC | 0.0555 | – | 2.38 | 0.113 | – | 0.736 | 4.38e-05 | 59600
